These results are taken from patent publication US20090220476A1 (CELLECTIS, published 2009).

The target of series [1] is T1, I-CreI Q44, A68, N70, N75, P05725.
T1 chain: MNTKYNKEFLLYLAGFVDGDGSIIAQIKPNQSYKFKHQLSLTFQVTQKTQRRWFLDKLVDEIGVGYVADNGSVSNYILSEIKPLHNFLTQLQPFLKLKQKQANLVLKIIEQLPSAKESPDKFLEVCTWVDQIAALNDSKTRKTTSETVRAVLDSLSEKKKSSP

Series [2] deals with the molecule itself. As to the kind of experiment: far-UV CD, 1H-NMR and analytical ultracentrifugation of purified protein; self-association (homodimer). Here is the method: Novel I-CreI variants were expressed, purified, and analyzed for in vitro cleavage as reported previously (Arnould et al., precited). Circular dichroism (CD) measurements were performed on a Jasco J-810 spectropolarimeter using a 0.2 cm path length quartz cuvette. Equilibrium unfolding was induced increasing temperature at a rate of 1° C./min (using a programmable Peltier thermoelectric). Samples were prepared by dialysis against 25 mM potassium phosphate buffer, pH 7.5, at protein concentrations of 20 μM.
Finally, analysis of the structure and stability of this group of combinatorial mutants was performed using far-UV CD (FIG. 19d), ¹H-NMR and analytical ultracentrifugation. […] Thus, the two sets of residues that were mutated, K28, N30, Y33, Q38 and S40 on one hand, Q44, R68 and R70 on the other, define two relatively independent DNA binding sub-domains.

Series [3] addresses T2, I-CreI combinatorial mutant NNSRK/ARR, P05725.
T2 chain: T1 chain with K28N, Y33S, Q38R, S40K, Q44A, A68R, N70R

The target of series [4] is T3, I-CreI combinatorial mutant NNSRK/ASR, P05725.
T3 chain: T1 chain with K28N, Y33S, Q38R, S40K, Q44A, A68S, N70R

Numbering of substitutions follows the chain as printed.

B1: I-CreI K44, T68, G70, N75 (protein)
chain: T1 chain with Q44K, A68T, N70G
For the protein B1, the “cleavage of chimeric DNA targets gtt/gcc and gtt/cct (yeast LacZ recombination assay, co-expression)” value in series [1] is “co-expression of the K44, T68, G70, N75 (KTG) and Q44, A68, N70, N75 (QAN) mutants resulted in the cleavage of two chimeric targets, gtt/gcc and gtt/cct, that were not cleaved by either mutant alone”.

B2: I-CreI combinatorial mutant NNSRK/ASR (enzyme, UniProt P05725 1-163, looked up)
chain: T1 chain with K28N, Y33S, Q38R, S40K, Q44A, A68S, N70R
notes: The scaffold ORF has three additional C-terminal codons (AAD)
With B2, the binding result in series [2] is listed as “binds”.

B3: I-CreI combinatorial mutant NNSRK/ARR (enzyme, UniProt P05725 1-163, looked up)
chain: T1 chain with K28N, Y33S, Q38R, S40K, Q44A, A68R, N70R
notes: as for B2
B3: in series [2], the binding result is “binds”.

B4: I-CreI combinatorial mutant KNHQS/KEG (enzyme, UniProt P05725 1-163, looked up)
chain: T1 chain with Y33H, Q44K, A68E, N70G
notes: as for B2
As to B4, in series [2], the binding result is “binds”. Moreover, the “cleavage of the chimeric site COMB1 (yeast LacZ recombination assay, co-expression)” value in series [3] is on record as “co-expression resulted in cleavage of the chimeric sequence COMB1 among all tested heterodimers (KNHQS/KEG×NNSRK/ARR named as the example with the higher level of activity)”.

B5: I-CreI combinatorial mutant KNHQS/KAS (enzyme, UniProt P05725 1-163, looked up)
chain: T1 chain with Y33H, Q44K, N70S
notes: as for B2
On to B5, for which the binding result in series [2] is reported as “binds”. Also, the “in vitro cleavage of the COMB1 target by purified proteins incubated together” value in series [3] is “Cleavage of the COMB1 target was also detected in vitro when the KNHQS/KAS and NNSRK/ARR purified proteins were incubated together with the COMB1 target in our conditions, while incubation of single protein did not give rise to any detectable cleavage activity. However, the cleavage efficiency was e”.

B6: I-CreI combinatorial mutant QNRQR/KEG (protein)
chain: T1 chain with K28Q, Y33R, S40R, Q44K, A68E, N70G
With B6, the “cleavage of the chimeric site COMB1 (yeast LacZ recombination assay, co-expression)” value in series [4] is on record as “co-expression resulted in cleavage of the chimeric sequence COMB1 among all tested heterodimers (QNRQR/KEG×NNSRK/ASR named as the example with the weaker activity)”.
